Entries after “also recorded” stand apart in the source; their conditions may differ.
How the values were obtained:
[1] = DSS-induced chronic colitis mouse model; format: in vivo, mice
Description: DSS-induced acute or chronic colitis and AOM/DSS CRC mouse models were prepared using 6-week-old C57BL/6 female mice (Samtako Bio, Osan, Korea). To assess the induction of acute colitis, mice were exposed ad libitum to 3% (w/v) dextran sodium sulfate (molecular weight: 36-50 kDa, MP Biomedicals, Santa Ana, CA, USA) dissolved in drinking water. The mouse models are illustrated in FIGS. 7A, 5E, and 6A. DSS solutions were prepared every two days. […] The humane endpoint for weight loss (requiring euthanasia) was 20% (compared to the original body weight of an animal). Without an approved exception request, body weight loss could not exceed 20%.
The clinical score of colitis was obtained by measuring body weight, fecal occult blood or total blood loss, and stool consistency every other day during the induction of colitis. The clinical score were assessed by two trained investigators who were randomly selected. For immunohistochemical analysis of tissue sections, mouse distal colon tissues were fixed in 10% formalin and embedded in paraffin. Paraffin sections ([…]) were cut and stained with H&E. Histopathological scoring was performed by a certified pathologist (Min-Kyung Kim, Department of Pathology, Kim Min-Kyung Pathology Clinic, Seoul, Korea) who scored each organ section independently without prior knowledge of the treatment group.
Next, the therapeutic effect of rCT-S100A8/A9 on chronic colitis was confirmed. Chronic DSS colitis was induced by three cycles of DSS+water combination, and intraperitoneal rCT-S100A8/A9 injection was performed once a day for three consecutive days of DSS administration in each cycle.

OxaR-HCT116 = test: Co-IP and Western blot in parental and OxaR-HCT116 cells stimulated with rS100A8/9; format: cell-based
Description: FIGS. 11A-11F show rCT-S100A8/A9 ameliorated oxaliplatin-resistant HCT116 xenograft tumor growth. […] Each vertical bar represents the mean±SD of cell viability at each dose. Data is shown as the mean±SD of six experiments. […] WCLs were used for IB including αTLR4, αRAGE, αS100A8, αS100A9, or αActin. […] HCT116 cells were injected subcutaneously into the flanks of nude mice. Tumor length and width were measured using calipers, and tumor volume was calculated every 3 days for 30 days. Representative images of tumors from mice treated with rCT-S100A8/9 on day 15 (middle). Statistical significance was determined by two-way analysis of variance (ANOVA) with Tukey's post hoc test. *P<0.05, ***P<0.001 compared to rVehicle. […] WCLs were used for IB including αTLR4, αRAGE, αS100A8, αS100A9, or αActin. […] Tumors were stained with H&E. Data is representative of seven independent experiments with similar results (FIGS. 11B, 11C, and 11E);
293T, BMDMs, and THP-1 cells were treated as indicated and processed for analysis by GST pulldown, Western blotting, and co-IP analysis. For GST pulldown, 293T cells were harvested and lysed in an NP-40 buffer including a complete protease inhibitor cocktail (Roche, Basel, Switzerland). After centrifugation, the supernatant was pre-cleared using protein A/G beads for two hours at 4° C. The pre-cleared lysates were mixed with a 50% slurry of glutathione-conjugated Sepharose beads (Amersham Biosciences, Amersham, UK), and binding reactions were performed for four hours at 4° C. by incubating the lysates at 4° C. The precipitate was extensively washed with a lysis buffer. Proteins bound to the glutathione beads were eluted by boiling for five minutes in a sodium dodecyl sulfate (SDS) loading buffer. For IP, cells were harvested and lysed in an NP-40 buffer supplemented with a complete protease inhibitor cocktail (Roche, Switzerland). After pre-clearing with protein A/G agarose beads for one hour at 4° C., whole cell lysates were used for IP using the indicated antibodies. Typically, 1 to […] of a commercial antibody was added to 1 ml of the cell lysate, and the resulting mixture was incubated for 8 to 12 hours at 4° C. After adding protein A/G agarose beads for six hours, immunoprecipitates were extensively washed with a lysis buffer and eluted with an SDS loading buffer by boiling for five minutes. For immunoblotting (IB), polypeptides were analyzed by SDS-polyacrylamide gel electrophoresis and transferred to polyvinylidene difluoride (PVDF) membranes (Bio-Rad, Hercules, CA, USA). Immunodetection was performed using specific antibodies. Antibody binding was visualized by chemiluminescence (ECL; Millipore, Burlington, MA, USA) and detected using a Vilber chemiluminescence analyzer (Fusion SL 3; Vilber Lourmat). […]

[2] = parameters: species or system BALB/c mice; settings: mouse, in vivo
Description: FIGS. 12A-12E show biological effects of rCT-S100A8/9 in tumor-bearing mice. […] Each vertical bar represents the mean±SD of cell viability at each dose. Data is shown as the mean±SD of six experiments. […] HCT116 cells were injected subcutaneously into the flanks of BALB/c mice as described in the Methods section. Mice were administered one or two intraperitoneal doses and sacrificed on day 5. Their expression was assessed by IB in various organs of mice. WCLs were used for IB including αActin. Data is representative of four independent experiments with similar results. […] E-cadherin, N-cadherin, and β-catenin staining of the tumors. […] Mice were immunized by each route (i.v. or i.p.) every 3 days, and blood was collected on day 40. IgG levels specific for rCT-S100A8/9 or ovalbumin (OVA) were measured using ELISA. Values represent the mean optical density (OD) and standard deviation at 450 nm. Each group included five mice. […] Serum cytokine levels were measured 30 days after administration. […]
(§1) A major concern with protein therapeutics derived from endogenous human proteins is that they may induce strong anti-therapeutic antibody responses and stimulate undesirable immune responses. […] Therefore, the immunogenicity of rCT-S100A8/A9 was assessed by measuring the production of anti-rCT-S100A8/A9 antibodies in mice immunized with the peptide according to the present invention. […]

[3] = parameters: species or system BALB/c mice; settings: mouse, in vivo; remark: listed apart in the source
Description: FIGS. 12A-12E show biological effects of rCT-S100A8/9 in tumor-bearing mice. […] Each vertical bar represents the mean±SD of cell viability at each dose. Data is shown as the mean±SD of six experiments. […] HCT116 cells were injected subcutaneously into the flanks of BALB/c mice as described in the Methods section. Mice were administered one or two intraperitoneal doses and sacrificed on day 5. Their expression was assessed by IB in various organs of mice. WCLs were used for IB including αActin. Data is representative of four independent experiments with similar results. […] E-cadherin, N-cadherin, and β-catenin staining of the tumors. […] IgG levels specific for rCT-S100A8/9 or ovalbumin (OVA) were measured using ELISA. […] Serum cytokine levels were measured 30 days after administration. […]
Cytokine content was analyzed in cell culture supernatants and mouse sera using the BD OptEIA ELISA set (BD Pharmingen) to detect TNF-α, IL-6, IL-1β, and IL-18. […]
as §1

[4] = parental and OxaR-HCT116 cells, Western blot

B1: TWYKIAFQRNRKTWYKIAFQRNRKTWYKIAFQRNRKTWYKIAFQRNRKTWYKIAFQRNRKGGFLVIKGGAHKSHKGGITIITFGGGHHGGFLVIKGGAHKSHKGGITIITFGGGHHGGFLVIKGGAHKSHKGGITIITFGGGHHGG (protein)
chain: TWYKIAFQRNRKTWYKIAFQRNRKTWYKIAFQRNRKTWYKIAFQRNRKTWYKIAFQRNRKGGFLVIKGGAHKSHKGGITIITFGGGHHGGFLVIKGGAHKSHKGGITIITFGGGHHGGFLVIKGGAHKSHKGGITIITFGGGHHGG
modifications: N-terminal 6xHis tag
colon damage (H&E staining) ([1]; 2.5% DSS chronic colitis): decreased; also recorded: alleviated
colon length ([1]; 2.5% DSS chronic colitis): recovered
survival rates ([1]; DSS-induced chronic colitis): significantly increased
body weight loss ([1]; i.p. once a day for three consecutive days per DSS cycle): significantly reduced body weight loss
macrophage polarization (M1/M2 markers) ([1]; macrophages and colonic lysates, real-time PCR): not affected
S100-PRR interactions (OxaR-HCT116; OxaR-HCT116, recombinant S100A8/A9 stimulated, 10, 20, 50 μg/ml): inhibited by increasing the concentration of rCT-S100A8/A9
phosphorylation of EGFR, AKT, and NF-κB (OxaR-HCT116; parental and OxaR CRC cells): decreased
expression of epithelial marker (E-cadherin) (OxaR-HCT116; [4]): increase
expression of mesenchymal markers (N-cadherin and vimentin) (OxaR-HCT116; [4]): significant decrease
production of specific anti-rCT-S100A8/A9 antibodies [2]: negligible compared to that induced by ovalbumin
production of pro-inflammatory cytokines [3]: negligible

Reference: patent US20250154215A1, “PHARMACEUTICAL COMPOSITION FOR TREATING COLITIS OR COLORECTAL CANCER COMPRISING COLON-TARGETED S100A8/A9-DERIVED SPECIFIC PEPTIDE” (Industry-University Cooperation Foundation Hanyang …, priority 2023, published 2025)
